Assay results as given in patent publication US12012457 (SYNTHEKINE, dated 2024).
Substitutions are numbered along the chain they refer to.

B1: mIL23R VHH18 (VHH)
VHH: QVQLQESGGGLVQPGGSLRLSCAASGFTFRLTAMRWVRQAPGKGLEWVSGIDSRGSTIYADSVKGRFTISKDNAKNTLYLQLNSLKTEDTAMYYCAQGVYGDTYSGSQGTQVTVSS
B2: mIL23R VHH31 (VHH)
VHH: B1 VHH with K71R
B3: mIL23R VHH23 (VHH)
VHH: B1 VHH with T28N, T32Y, L45V, R54G
B4: mIL23R VHH28 (VHH)
VHH: B1 VHH with K71R, T90A
B5: mIL23R VHH13 (VHH)
VHH: B1 VHH with A24T, T32A
B6: mIL23R VHH2 (VHH)
VHH: B1 VHH with L11S, P14A, R19T, A23T, S25P, T32A
B7: mIL23R VHH17 (VHH)
VHH: B1 VHH with L11S, P14A
B8: mIL23R VHH30 (VHH)
VHH: B1 VHH with Q108L
B9: mIL23R VHH9 (VHH)
VHH: B1 VHH with A24T, L45V, R54A, L82M
B10: mIL23R VHH19 (VHH)
VHH: B1 VHH with T32S
B11: mIL23R VHH34 (VHH)
VHH: B1 VHH with Y104H
B12: mIL23R VHH12 (VHH)
VHH: QVQLQESGGGSVQAGGSLRLSCAASGYTYSSCTMGWYRQAPGKERELVSMLISDGSTFYADSVKGRFTFSQENAKNTVYLQMNSLKPEDTAMYYCGCATLGSRTVWGQGTQVTVSS
B13: mIL23R VHH8 (VHH)
VHH: B12 VHH with A23T, G26R, L51V, I52F, V105I
B14: mIL23R VHH1 (VHH)
VHH: B12 VHH with N73Y
B15: mIL23R VHH25 (VHH)
VHH: B12 VHH with Y94F
B16: mIL23R VHH11 (VHH)
VHH: B12 VHH with N76S
B17: mIL23R VHH36 (VHH)
VHH: B12 VHH with Y27D, E46D, L51V, I52F, V105I
B18: mIL23R VHH15 (VHH)
VHH: B12 VHH with L51V, I52F, V105I
B19: mIL23R VHH27 (VHH)
VHH: B12 VHH with F69S
B20: mIL23R VHH10 (VHH)
VHH: B12 VHH with Y27D, E46D, I52M, S53G, V105I
B21: mIL23R VHH16 (VHH)
VHH: B12 VHH with Y27D, E46D, I52M, S53G, S84N, V105I

The binders below were run against T1, extracellular domain of mouse IL23R (mIL23R ECD) (mouse, UniProt Q8K4B4 24-374) (assay: periplasmic extract ELISA (PE-ELISA), 96-well plate, colorimetric).
T1 construct: also called mIL-23 ECD antigen
T1 sequence: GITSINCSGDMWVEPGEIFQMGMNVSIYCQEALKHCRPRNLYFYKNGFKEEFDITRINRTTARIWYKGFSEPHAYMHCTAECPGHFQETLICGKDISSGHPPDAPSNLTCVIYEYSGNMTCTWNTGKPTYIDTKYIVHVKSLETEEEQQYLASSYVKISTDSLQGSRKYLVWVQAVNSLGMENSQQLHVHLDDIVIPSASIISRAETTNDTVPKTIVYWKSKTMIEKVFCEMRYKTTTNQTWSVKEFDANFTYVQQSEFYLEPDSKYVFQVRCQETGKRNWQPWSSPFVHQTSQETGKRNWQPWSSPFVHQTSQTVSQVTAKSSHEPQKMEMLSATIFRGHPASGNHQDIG

Binding result, binds:
B1, B2, B3, B4, B5, B6, B7, B8, B9, B10, B11, B12, B13, B14, B15, B16, B17, B18, B19, B20, B21
